Experiment [1] addresses T1, Prototype (Wuhan-Hu-1) rS (SARS-CoV-2 (parent virus, Wuhan-Hu-1), UniProt P0DTC2 14-1273).
For experiment [2], the target named is T1, Prototype (Wuhan-Hu-1) rS. The experiment can be described thus: ELISA: rS coated, mAb titrated, anti-mouse HRP.

A value given as a limit tells only on which side of the number the result lay.

B1: NVX.62.12 (antibody, V domains shown)
VH: QVQLQQSGAELVRPGVSVKISCKGSGYTFTDYAMHWVKQSHAKSLEWIGVISTYSGDAYYNQKFKGKATVTVDKSSSTAYMELARLTSEDSAIYFCARNWDDYYAMDYWGQGTSVTVSS
VL: QIILSQSPAILSASPGERVTMTCRATSSVSYMHWYRQKPGSSPQPWIYATSNLASGVPARFSGSGSGTSYSLTISRVEAEDAATYYCQQWSGNPWTFGGGTKLEIK
notes: also called mAb NVX.62.12
For the molecule B1, the IC50 in experiment [1] was more than 3 µg/mL. The EC50 in experiment [2] is more than 5 µg/mL.

B2: NVX.324.6 (antibody, V domains shown)
VH: EVQLQQSGPELGKPGTSMKISCKASGYSFTGYTMNWVKQSHGKNLEWIGLINPYNGGTSYNQKFKDKATLTVDKSSSTAYMELLSLTSEDSAVYYCVREHYYYDSGYGGYYAMDYWGQGTSVTVSS
VL: QIVLSQSPAILSASPGDKVTMTCRASASVNYMYWYQQKPGSSPKPWIYATSNLASGVPARFSGSGSGTSYSLTISRVEAEDAAIYYCQQWSSNPYTFGGGTKLEIK
notes: also called mAb NVX.324.6
As for B2, the IC50 in experiment [1] was more than 3 µg/mL. In experiment [2], the EC50 is more than 5 µg/mL.

The record behind these values is US20250109187A1 (NOVAVAX, published 2025).
